Data reported in patent publication US7700727B2, “Compositions and kits for detecting pathogen infection” (Biokit, S.A., priority 2003, dated 2010).

What was measured:
[1] = system: Micrococcus lysodeikticus; conditions: pH 6.24, 25° C., Micrococcus lysodeikticus suspension; cited from earlier work
chicken lysozyme [2] = biological target: T1, chicken lysozyme (Gallus gallus, UniProt P00698); test: Far Western blot lysozyme-protein interaction assay; type: binding; design: Purified chicken egg white lysozyme; purchased Sigma-Aldrich (Madrid, Spain); host or cells: chicken egg white; conditions: 1, 5 and 10 μg immobilized lysozyme per lane; washes with 0.05% Tween 20
Procedure: (§1) In order to test this hypothesis, a Far-Western blot lysozyme-protein interaction assay was performed. The assay is summarized in FIG. 5 and comprises generally the following three steps: (1) immobilization of purified lysozyme onto a membrane; (2) probing of the membrane with a ligand likely to bind directly to the lysozyme; and (3) immunodetection of the bound lysozyme-ligand. A detailed experimental procedure is presented below.
(§2) Purified chicken egg white lysozyme and human breast milk lysozyme were purchased from Sigma-Aldrich (Madrid, Spain). Two series of aliquot fractions containing 1 μg, 5 μg, and 10 μg of purified lysozyme and a protein molecular weight marker (SeeBlue Plus II™, Invitrogen SA, Barcelona, Spain) were separated electrophoretically through a 4-12% SDS-PAGE gel using the conditions recommended by the supplier (Invitrogen). […] The presence of lysozyme immobilized onto the PVDF membrane was assessed by staining for 1 minute with Ponceau S stain (Sigma-Aldrich, Madrid, Spain), and then destained by vigorous washing for 5 minutes with desionized water. The membrane was divided in two, each portion containing a protein ladder and three quantities of chicken or human lysozyme (1 μg, 5 μg and 10 μg per lane). […]

lysozyme [3] = biological target: T2, lysozyme (Homo sapiens, UniProt P61626); test: Lysozyme inhibition assay (EnzCheck, fluorescein-labeled Micrococcus lysodeikticus); type: biochemical
T2 sequence (P61626 19-148): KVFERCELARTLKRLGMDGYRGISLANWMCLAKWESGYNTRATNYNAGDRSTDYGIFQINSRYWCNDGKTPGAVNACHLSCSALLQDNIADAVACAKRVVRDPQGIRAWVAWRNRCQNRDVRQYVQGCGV
Procedure: (§3) To test this hypothesis, the antibacterial activity of both human and chicken lysozyme, in the presence or absence of GST-Tp17, was assayed using an EnzCheck® lysozyme assay kit (Molecular Probes, Eugene, Oreg.). The assay comprises the use of Fluorescein-labeled Micrococcus lysodeikticus bacterial cells as a fluorescent substrate of lysozyme. In this Gram positive bacterium, the peptidoglycan layer is directly accessible to lysozyme, and has been Fluorescein-labeled such that fluorescence is naturally quenched. Upon lysozyme hydrolysis, quenching is relieved and fluorescein is released in a quantity that is proportional to lysozyme activity. The following experimental protocol was used.
(§4) A typical 100 μl reaction consisted of 25 μl of lysozyme solution (10 units for chicken lysozyme or 50 units for human lysozyme, dissolved in deionized water), 25 μl of the test protein solution and 50 μl of a suspension of fluorescein-labeled Micrococcus lysodeikticus (50 μg/ml). The reaction was incubated for 45 minutes at 37° C. and the fluorescence was measured (λexc.=485 nm; λemi.=520 nm) using a fluorescence multi-well plate reader model FLx800 (Bio TEK instruments, Winoosky, Vt.) equipped with KC junior data acquisition software (Bio TEK Instruments, Winoosky, Vt.). Each experimental point was expressed as the mean and standard deviation corresponding to the reading of three independent wells. Wells containing 50 μl of deoinized water and 50 μl of Fluorescein-labeled Micrococcus lysodeikticus suspension were used as a blank. Two fold serial dilutions of test protein were used to vary the concentration of the test protein from 83.5 to 1.3 μg/well.

chicken lysozyme [4] = biological target: T1, chicken lysozyme; test: as above; type: biochemical
Procedure: as §3, §4

lysozyme [5] = biological target: T2, lysozyme; test: Far Western blot lysozyme-protein interaction assay; type: binding; conditions: 1, 5 and 10 μg immobilized lysozyme per lane; washes with 0.05% Tween 20
Procedure: as §1, §2

lysozyme [6] = biological target: T2, lysozyme; test: Lysozyme binding assay on spotted β-APP fragments with POD-labeled human lysozyme; conditions: 10 μg protein spotted; POD-huLYS diluted 1/1000
Procedure: To test whether the β-APP protein binds huLYS, we performed lysozyme binding assays using purified, recombinant forms of β-APP. Both sAPPα (product number: S9564) and sAPPα (302-612) (product number: S8065) were purchased from Sigma-Aldrich (Tres cantos, Madrid, Spain). 10 μg of each protein was spotted onto a Nytran membrane (Scleicher & Schuiell, Dassel, Germany). Non-specific adsorption sites were blocked by incubation for one hour in TBST-milk. After three washes with TBST, the membrane was incubated for one hour with horse radish peroxidase (POD)-labeled human lysozyme diluted 1/1000 in TBST-milk. Next, the membrane was washed three times, for 5 minutes each wash, with TBST. Staining was performed by adding 5 ml of POD chromogenic substrate (TMB, product number: T0565, Sigma). […] Moreover, the β-APP/huLYS protein complex likely serves as a diagnostic marker of Alzheimer's disease.

[7] = system: anti-T. pallidum antibodies in human sera; test: Syphilis ELISA (Bioelisa, second and third generation format) with added lysozyme
From the text: Syphilis screening is routinely performed using enzyme-linked immunosorbent assays (ELISA) kits. These kits detect the binding of anti-syphilis antibodies to T. pallidum antigens immobilized in the wells of a microtiter plate. Detection of the binding of anti-syphilis antibodies to the plate is normally carried out by means of either an enzyme-labeled antiserum directed against human Fc antibody chains (second generation kit) or an enzyme-labeled T. pallidum antigen (third generation kit).
All the reagents used in this study are provided by the commercial Bioelisa Syphilis 3.0 detection kit (Biokit S.A., Lliça d'Amunt, Spain). The protocol used is that recommended in the package insert of the kit. Briefly, serum or plasma samples are added to the wells of a microtiter plate. If antibodies specific for T. pallidum are present in the sample, they form stable complexes with the antigens on the well. After washing to remove the unbound material, a rabbit conjugate anti-human IgG and anti-human IgM labelled with horseradish peroxidase is added and, if the antigen/antibody complex is present, the conjugate binds to the complex. After a second wash, an enzyme substrate solution containing a chromogen is added. This solution develops a blue color if the sample is positive. The blue color changes to yellow after blocking the reaction with sulphuric acid. […]

GST-Tp17 or Tp17-HIS = test: Antibacterial activity of lysozymes with or without Tp17 (EnzCheck); type: biochemical, Treponema pallidum; conditions: 1 unit human lysozyme or 230 units rLysozyme; 10 μg GST-Tp17 or Tp17-HIS
From the text: In that context, we compared the antibacterial activity of human lysozyme (Ventria Bioscience, Sacramento, Calif., USA) and rLysozyme™ using the EnzCheck Lysozyme assay (E-22013; Molecular Probes, Eugene, Oreg.). We first determined that under the manufacturer's prescribed assay conditions, 1 unit of human lysozyme produced the same intensity of fluorescence as 230 units of rLysozyme™. Next, we measured the fluorescence intensity of either 1 unit of human lysozyme or 230 units of rLysozyme™, in the presence or absence of 10 μg of either GST-Tp17 or Tp17-HIS. […] As a consequence, rLysozyme™ represents a novel and promising antimicrobial drug that could eventually substitute for chicken lysozyme in various therapeutic preparations intended for human and animal use. Additionally, it can be used as an antiseptic and/or as a food preservative.

[8] = test protein 83.5 to 1.3 μg/well

T1 sequence (P00698 19-147): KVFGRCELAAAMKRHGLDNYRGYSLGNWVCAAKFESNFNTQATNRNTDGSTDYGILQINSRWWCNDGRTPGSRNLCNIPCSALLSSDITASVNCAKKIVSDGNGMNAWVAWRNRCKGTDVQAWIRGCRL
Sequence of GST-Tp17 or Tp17-HIS (P29722 23-156 limits assumed): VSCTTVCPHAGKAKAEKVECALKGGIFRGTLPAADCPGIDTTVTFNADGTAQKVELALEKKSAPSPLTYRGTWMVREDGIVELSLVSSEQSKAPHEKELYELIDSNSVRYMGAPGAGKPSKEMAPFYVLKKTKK

recombinant human transgenic rice lysozyme: purified recombinant human lysozyme from transgenic rice (159-53LZ-90P; Ventria Bioscience)
specific activity [1]: 187,000 units/mg protein

GST-Tp17: recombinant fusion of glutathione S-transferase and Treponema pallidum 17 kDa antigen Tp17 (SEQ ID NO:29)
binding to chicken lysozyme (chicken lysozyme [2]): detected binding
inhibition of acetyl muramidase activity of human lysozyme (lysozyme [3]; as little as 1.3 μg/well, 50 units human lysozyme): > 85%
inhibition of acetyl muramidase activity of chicken lysozyme (chicken lysozyme [4]; as little as 1.3 μg/well, 10 units chicken lysozyme): > 85%
binding to human lysozyme (lysozyme [5]): detected binding

sAPPα: longer recombinant fragment of β-APP derived from the APP695 isoform (Sigma S9564)
binding of POD-labeled human lysozyme (huLYS) (lysozyme [6]): bound

B1: GST-Tp47: control protein, GST fusion of T. pallidum Tp47 antigen (protein)
chain: CGSSHHETHYGYATLSYADYWAGELGQSRDVLLAGNAEADRAGDLDAGMFDAVSRATHGHGAFRQQFQYAVEVLGEKVLSKQETEDSRGRKKWEYETDPSVTKMVRASASFQDLGEDGEIKFEAVEGAVALADRASSFMVDSEEYKITNVKVHGMKFVPVAVPHELKGIAKEKFHFVEDSRVTENTNGLKTMLTEDSFSARKVSSMESPHDLVVDTVGTGYHSRFGSDAEASVMLKRADGSELSHREFIDYVMNFNTVRYDYYGDDASYTNLMASYGTKHSADSWWKTGRVPRISCGINYGFDRFKGSGPGYYRLTLIANGYRDVVADVRFLPKYEGNIDIGLKGKVLTIGGADAETLMDAAVDVFADGQPKLVSDQAVSLGQNVLSADFTPGTEYTVEVRFKEFGSVRAKVVAQ
modifications: left off: a dimerising Fc or GST
notes: control protein, GST fusion of T. pallidum Tp47 antigen
binding to chicken lysozyme (chicken lysozyme [2]): No signal was detected
inhibitory effect on human lysozyme acetyl muramidase activity (in words) (lysozyme [3]; [8]): did not exert any inhibitory effect
inhibitory effect on chicken lysozyme acetyl muramidase activity (in words) (chicken lysozyme [4]; [8]): did not exert any inhibitory effect
binding to human lysozyme (lysozyme [5]): No signal was detected

B2: human lysozyme: human lysozyme (NP_000230); breast milk-derived in Example 8, recombinant (Ventria) in Examples 10 and 16 (protein, listed as Homo sapiens)
chain: T2 sequence (P61626 19-148)
increase in signal intensity ([7]; second generation format, lysozyme added to the plate at 2.86 μg/ml, syphilis-positive human sera): about 20%
increase in signal intensity ([7]; third generation format, lysozyme in sample dilution buffer (10.8 μg/ml) and conjugate dilution buffer (1.08 μg/ml), 3 out of 4 sera): about 200%
susceptibility of antibacterial activity to inhibition by GST-Tp17 or Tp17-HIS (GST-Tp17 or Tp17-HIS): strongly inhibited
